Biological target: native human thyroglobulin (human) (UniProt P01266)
Assay: cryo-EM structure; hTG at 2 mg/mL in 25 mM Tris-HCl pH 7.5, 150 mM NaCl, sodium azide; plunge frozen; C2 symmetry imposed; composite map at 3.2 Å

stoichiometry N: 2
Substance: native human thyroglobulin, P01266 20-2768
